According to publication PMC11324726, “Structural dynamics of protein-protein association involved in the light-induced transition of Avena sativa LOV2 protein” (Nature Communications, 2024):

What was measured:
[1] = biological target: the molecule itself; experiment: time-resolved X-ray liquidography (TRXL, TR-SAXS/WAXS); in solution; ns laser pump at 450 nm, X-ray probe; 1.5 mM protein in 20 mM Tris pH 7.0, 200 mM NaCl, 293 K; monomers (I2) to dimer (P); kinetic analysis by SVD and KCA, structural analysis aided by MD
[2] = biological target: the molecule itself; experiment: SEC; light state; monomer and dimer fractions by elution volume; conditions in Supplementary Note 3 and Supplementary Methods (not shown)

B1: AsLOV2 (residue 404-546) I427V mutant (domain or fragment, Avena sativa, UniProt O49003 404-546, looked up)
chain: LATTLERIEKNFVITDPRLPDNPVIFASDSFLQLTEYSREEILGRNCRFLQGPETDRATVRKIRDAIDNQTEVTVQLINYTKSGKKFWNLFHLQPMRDQKGDVQYFIGVQLDGTEHVRDAAEREGVMLIKKTAENIDEAAKEL
notes: Avena sativa phototropin 1, residues 404-546, with I427V (faster photocycle); Carries FMN; Cys-FMN photoadduct in the light state; also called AsLOV2 I427V
stoichiometry N [1]: 2

B2: Avena sativa phototropin 1 LOV2 domain with A'α and Jα helices (residue 404-546), wild type (domain or fragment, UniProt O49003 404-546, looked up)
chain: LATTLERIEKNFVITDPRLPDNPIIFASDSFLQLTEYSREEILGRNCRFLQGPETDRATVRKIRDAIDNQTEVTVQLINYTKSGKKFWNLFHLQPMRDQKGDVQYFIGVQLDGTEHVRDAAEREGVMLIKKTAENIDEAAKEL
notes: Avena sativa phototropin 1 (AsPhot1), A'α helix (404-412) + LOV2 core (413-520) + Jα helix (521-546), residues 404-546; Carries FMN as chromophore; in the light state a Cys-FMN photoadduct is formed; also called AsLOV2; AsLOV2 WT
stoichiometry N [2]: 2
